Data published in publication PMC3396432.

Target: Cav1(62-178) P132L (UniProt Q03135)
Assay: AUC

Cav1(62-178) P132L (from UniProt Q03135 62-178) (domain or fragment)
Kd: < 15 nM | stoichiometry N: 2
